Kd, stoichiometry N and binding signal data for four molecules are collected here from PMC1180670.

Series [1] relates to S. pombe Translin (Schizosaccharomyces pombe). Description: EMSA.
Series [2] concerns the target recombinant S.pombe Translin (S. pombe). The series can be described thus: glycerol gradient centrifugation.
In the next series the target is human Translin (Homo sapiens, UniProt Q15631 1-228). Description: EMSA. On the technique in general: Mobility shift assays separate free from complexed probe on a gel.

What is called Kd is the free concentration of one partner at which half of the binding sites on the other are occupied at equilibrium, for simple one-to-one binding. A low value points to higher affinity. For orientation: stoichiometry N means the number of molecules, sites or subunits per partner or assembly.

human Translin, sequence (Q15631 whole entry): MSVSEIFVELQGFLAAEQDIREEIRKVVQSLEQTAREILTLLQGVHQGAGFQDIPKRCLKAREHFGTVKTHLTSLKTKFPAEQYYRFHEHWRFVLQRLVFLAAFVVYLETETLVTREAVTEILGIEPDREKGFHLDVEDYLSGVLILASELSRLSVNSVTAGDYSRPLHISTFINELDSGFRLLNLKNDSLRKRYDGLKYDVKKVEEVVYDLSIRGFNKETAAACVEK

“GTGTGTGTGTGTGTGTGTGTGTGTGTGTGT [d(GT)15]” displayed a Kd in series [1] of 18 nM.

Take GUGUGUGUGUGUGUGUGUGUGUGUGUGUGU [(GU)15]: the Kd in series [1] stood at 3 nM.

For “recombinant S.pombe Translin (natural protein)”, the stoichiometry N in series [2] is 8.

B1: d(GT)15 (ssDNA)
DNA: GTGTGTGTGTGTGTGTGTGTGTGTGTGTGT
For the molecule B1, the binding signal with human Translin is ~2 Kd relative to (GU)15.
